Test results taken from patent publication US8637237.

Target: mouse RXRα (mRXRα) (mouse) (UniProt P28700)
Assay: cell-based or functional assay

GGF (human glucocorticoid receptor amino terminus and DBD linked to the carboxyl terminus (LBD) of FXR) (from UniProt P04150 1-509; Q62735 188-469)
GGF-dependent transcriptional induction by farnesol (40 µM), FIG. 16D: 2 fold
